Data as given in article PMC3561947.

Target: His-tagged human polι P680A (pJRM86) (human)
Assay: far-Western, overlay or dot blot

in vitro translated 35S-labeled ubiquitin (from pBP129) (from UniProt P0CG47 1-76) (natural protein)
percent of wild type (% of wild type): 40
